The values below come from patent US20220112292A1 (ALETA BIOTHERAPEUTICS, published 2022).

Usually EC50 stands for the concentration giving half of the maximal effect. Read a high EC50 as a less potent agent.

For experiment [1], the target named is T1, CLL-1 on U937 cells (human, UniProt Q5QGZ9 1-265).
T1 construct: whole, on cells; also called CLEC12A; Clec12A
T1 sequence: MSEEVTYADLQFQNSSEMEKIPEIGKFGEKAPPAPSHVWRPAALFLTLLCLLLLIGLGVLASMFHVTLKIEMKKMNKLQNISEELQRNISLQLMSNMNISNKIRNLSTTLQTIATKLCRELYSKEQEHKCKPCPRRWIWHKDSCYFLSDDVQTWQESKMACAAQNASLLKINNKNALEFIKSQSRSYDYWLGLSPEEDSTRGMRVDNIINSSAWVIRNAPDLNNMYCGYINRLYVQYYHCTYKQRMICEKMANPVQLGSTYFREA
As to the kind of experiment: flow cytometry on U937 cells, a-cMyc then a-msIgG-PE. How it is done:
(§1) Additional VHH clones were assessed for binding to U937. […] Clones tested: 1A10: stock=0.9 mg/ml; 1B1: stock=0.9 mg/ml; […]: stock=1.5 mg/ml; 2C8: stock=0.9 mg/ml; 1D2: stock=0.06 mg/ml. Previous clone as control 2F5: stock=0.5 mg/ml.
(In general: Flow cytometry measures light scatter and fluorescence of single cells or particles in a stream.)

Experiment [2] addresses T1, CLL-1 on U937 cells. As to the kind of experiment: flow cytometry on U937 cells, clone at 3ug/ml, a-Myc then a-mIgG-PE; no clone 0.6% and 64,740.2, unstained 0.0% and 4,885.0. How it is done: as §1
The target in experiment [3] is T1, CLL-1 on U937 cells. Nature of the experiment: flow cytometry on U937 cells, 3x serial dilutions from 3 ug/ml, anti-His-PE. The protocol:
(§2) U937 cell binding by VHH clones was assessed using varying doses to determine EC50s. Briefly, the method included: VHH clones (3 ug/ml as starting conc./test, with 3× serial dilutions) in FACS buffer were added to Fc blocked U937 or 293T-CLL1 cells (2.5×10\hat{ }5), the mixtures were incubated for 30 min at 4° C., then washed twice with FACS buffer by spinning at 500G for 2 min; anti-His-PE was added to cells, the mixture was incubated for 30 min at 4° C. and washed twice with FACS buffer by spinning at 500G for 2 min; 1% PFA (Paraformaldehyde) in PBS was added to cell pellet to fix the cells, followed by FACS analysis. VHH clones tested: 1B5: stock=1.6 mg/ml; 1H1: stock=1.9 mg/ml; 1G6: stock=1.1 mg/ml; 2F3: stock=1.45 mg/ml; 2F5: stock=0.5 mg/ml; 2H3: stock=2 mg/ml.

The target in experiment [4] is T1, CLL-1 on U937 cells. As to the kind of experiment: flow cytometry on U937 cells, clone lysate, anti-cMyc-PE (Table 3 summary).
The target in experiment [5] is T2, Clec12A (ABclonal, RP01018) (human, UniProt Q5QGZ9-1 75-275, limits assumed).
T2 construct: Bought recombinant protein; also called ABclonal Clec12A; Clec12A from AbClonal
T2 sequence: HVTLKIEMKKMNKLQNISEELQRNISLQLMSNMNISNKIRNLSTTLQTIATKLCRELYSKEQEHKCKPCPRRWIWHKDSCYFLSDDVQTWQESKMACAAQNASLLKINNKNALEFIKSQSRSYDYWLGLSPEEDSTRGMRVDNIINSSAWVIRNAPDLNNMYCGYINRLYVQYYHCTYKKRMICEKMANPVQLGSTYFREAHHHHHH
As to the kind of experiment: ELISA: coated with clec12a, then 2H3, anti-myc, HRP-anti-mIgG; OD405. The protocol:
(§3) The ability of VHH clones to recognize commercially available recombinant Clec12a proteins was tested by ELISA. […] The plate was blocked with 200 μl/well 0.3% non-fat milk in Tris buffered saline (TBS) for 1 hr at room temperature (RT). Then, the plates were washed 3× with wash buffer (1×TBST: 0.1 M Tris, 0.5 M NaCl, 0.05% Tween 20). Next, 100 μl of the 2H3 VHH-Myc-His (SEQ ID NO: 15, purified by ProSci), was added starting at 5 μg/ml with 3 fold dilutions, and incubated for 1 h at RT. The plate was washed 3× with wash buffer and 100 μl of 1 ug/ml anti-Myc antibody (NOVUS/Fisher, NBP2-37822) was added per well. The plate was incubated for 1 h at RT and then washed 3× with wash buffer. Following the wash step, 100 μl of a 1:2000 dilution of HRP-anti-mIgG (Jackson ImmunoResearch, 115-035-062) was added per well and incubated at RT in the dark for 1 hr. […] This experiment was repeated twice.
Background: An ELISA detects its analyte on a solid surface through an enzyme-linked reagent.

The target of experiment [6] is T3, Clec12A-His (Sino Biological, 11896-H07H) (human, UniProt Q5QGZ9 65-265).
T3 construct: Bought soluble protein; also called soluble CLEC12a-His; Sino Biological Clec12A
T3 chain: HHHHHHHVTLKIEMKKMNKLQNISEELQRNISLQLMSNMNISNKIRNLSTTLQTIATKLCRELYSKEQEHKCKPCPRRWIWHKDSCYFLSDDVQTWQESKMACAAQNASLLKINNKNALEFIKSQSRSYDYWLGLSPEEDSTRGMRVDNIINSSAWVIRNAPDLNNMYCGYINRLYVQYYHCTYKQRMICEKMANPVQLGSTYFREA
As to the kind of experiment: ELISA, upper graph (first experiment): coated with clec12a, then 2H3, anti-myc, HRP-anti-mIgG; OD405. How it is done:
as §3

Experiment [7] has as its target T3, Clec12A-His (Sino Biological, …). As to the kind of experiment: ELISA, lower graph (second experiment): coated with clec12a, then 2H3, anti-myc, HRP-anti-mIgG; OD405. How it is done: as §3
The target of experiment [8] is T1, CLL-1 on U937 cells. As to the kind of experiment: flow cytometry on U937 cells, % binding against ng/ml, detected with a-His-PE; EC50 of the fitted curve. The protocol:
as §2

Experiment [9] concerns the target T1, CLL-1 on U937 cells. Nature of the experiment: flow cytometry on U937 cells, VHH in 3-fold dilutions, detected with a-His-PE; percent of cells positive. The protocol: as §2
In experiment [10] the target is T1, CLL-1 on U937 cells. Nature of the experiment: flow cytometry on U937 cells, VHH at 3 ug/ml, detected with a-His-PE; a-His-PE alone 1.1% and 5,576.5, unstained 0.6% and 5,793.5. The protocol: U937 cell binding by VHH clones was assessed. Briefly, the method included: U937 cells (2.5×10\hat{ }5) were Fc blocked (human Fc block, BD Cat. #BDB564220) for 10 min at room temperature, then washed once with FACS buffer (PBS+1% BSA+0.1% Sodium Azide) by spinning at 500G for 2 min; VHH clones (3 μg/ml as final conc) in FACS buffer were added to the cell pellets and incubated for 30 min at 4° C., then washed twice with FACS buffer by spinning at 500G for 2 min; anti-His-PE (R&D Systems, Cat. #IC050P) was added to cells; the mixture was incubated for 30 min at 4° C. and washed twice with FACS buffer by spinning at 500G for 2 min; 1% PFA (Paraformaldehyde) in PBS was added to cell pellet to fix the cells, followed by FACS analysis. VHH clones tested: 1B5: stock=1.6 mg/ml; 1H1: stock=1.9 mg/ml; 1G6: stock=1.1 mg/ml; 2F3: stock=1.45 mg/ml; 2F5: stock=0.5 mg/ml; 2H3: stock=2 mg/ml. As shown in FIGS. 2A-2C, binding of clones 1H1, 1G6, 2F5 and 2H3 to U937 cells was detected with anti-His-PE; very little binding of clones 1B5 and 2F3 to U937 cells could be detected by anti-His-PE.

Experiment [11] deals with T3, Clec12A-His (Sino Biological, …). Nature of the experiment: competition ELISA on coated CLEC12a-His, biotinylated VHH against unlabelled VHH. How it is done:
ELISAs were used to determine if the VHH clones recognized distinct or similar epitopes. […] The plate was blocked with 0.3% nonfat milk in TBS (200 ul/well) for 1 hr at RT. The plates were washed 3× with 1×TBST (0.1 M Tris, 0.5 M NaCl and 0.05% Tween-20). The test anti-CLEC12a VHHs were added at 10 ug/ml horizontally across the plate, 100 ul per well and incubated for 1 h. Without washing, the test anti-CLEC12a biotinylated VHHs were added at 0.2 ug/ml vertically down the plate, 100 ul per well and incubate for 1 h. After being washed 3× with 1×TBST, HRP-conjugated streptavidin (Pierce #21130) at 1:2000 (100 ul/well) was added, followed by incubation at RT in the dark for 1 hr. For detection, 1-Step Ultra TMB-ELISA reagent (Thermo Fisher #34028) was added at 100 ul per well and read at 450 nm. […] The 1H1 VHH was distinct from these, and 2C2 was intermediate. Results are depicted in FIGS. 7A-7D.

B1: 1C6 (VHH)
VHH: QVQLQESGGALVQAGGSLRLSCAASGLTFSNYAMGWFRQAPGKEREFVAAINWSGGTTDYATSVKGRFTISRDNAKNTVYLQLNSLKPEDTAVYYCAASYRLRITVVVTPDEYHYWGQGTLVTVSS
notes: also called VHH clone 1C6
Consider B1, for which, in the experiment with CLL-1 on U937 cells [1], the binding result is reported as “no binding (tested: 3ug/ml)”. Further, in the experiment with CLL-1 on U937 cells [2], the “% of This Plot (R3)” value amounted to 6% and the “Mean FL2-A (R3 gate)” value is 12300.

B2: VHH clone 2H3 (VHH)
VHH: QVQLQESGGGLVQAGGSLRLSCVASGSIRSINVMGWYRQAPGKQRELVAACASDGNTYYADSVKGRFTISRDNAEKTVYLQMNNLKPDDTAVYYCDANSRGNYYSGQGTQVTVSS
notes: Includes myc and His tags; also called 2H3 VHH-Myc-His; VHH 2H3
Molecule B2 had an EC50 in the experiment with CLL-1 on U937 cells [3] of 0.35 nM. For the same molecule, the “% FACS positive” value in the experiment with CLL-1 on U937 cells [4] amounted to 94.3%. Also, in experiment [5], the binding result is recorded as “no binding (tested: about 5000 ng/ml)”. In addition, the 50% effective concentration (EC50) in experiment [6] turned out to be 0.0661 µg/mL. In experiment [7], this molecule showed an EC50 of 0.0625 µg/mL. For the same molecule, in the experiment with CLL-1 on U937 cells [8], it took 0.00547 µg/mL to reach a half-maximal effect (EC50). In the experiment with CLL-1 on U937 cells [9], the “% binding at 1.4 ng/ml” value worked out at 6.2%, the “% binding at 4.1 ng/ml” value was 33.5%, the “% binding at 12.3 ng/ml” value turned out to be 70.5% and the “% binding at 37.0 ng/ml” value was 89%. Besides, in the experiment with CLL-1 on U937 cells [9], the “% binding at 111.1 ng/ml” value came out at 89.4%, the “% binding at 333.3 ng/ml” value is 89.9%, the “% binding at 1000 ng/ml” value stood at 90.3% and the “% binding at 3000 ng/ml” value came to 88.7%. Further, in the experiment with CLL-1 on U937 cells [10], the “% of This Plot (R3 PE+)” value was 93.8% and the “Mean FL2-A (R3 gate)” value amounted to 8130.

B3: VHH clone 2C2 (VHH)
VHH: QVQLQQSGGGLVQAGGSLTLSCAATGRTIDNGAMAWFRQAPGKQRELVAAINWSGGATFYTDSVKYRFTISRDNVRHTLDLQMTSLKPEDTTIYFCASRRGVDLRRNSYEYDYWGRGTLVTVSS
notes: Includes myc and His tags
For the molecule B3, the “% FACS positive” value with CLL-1 on U937 cells [4] worked out at 77.2%. Moreover, the binding result in experiment [11] was “binds”.
